Test results: PMC12211734, “In silico and in vitro characterisation and affinity maturation of human red blood cell binding aptamers†”

Experiments:
[1] = molecular target: GLUT1 (glucose transporter band 4.5) (Homo sapiens) (UniProt P11166); assay: ELONA; details: ELONA: protein coated at 10 nM in carbonate/bicarbonate pH 9.6; aptamer (1.5625 nM-5 uM, 95 C 5 min then snap-cooled) in 1x DPBS, 0.55 mM MgCl2, 0.05% …
Glycophorin A [2] = molecular target: T1, Glycophorin A (Homo sapiens, UniProt P02724 20-91); assay: ELONA; one-site fit, R2 0.948; text says low micromolar; ELONA: protein coated at 10 nM in carbonate/bicarbonate pH 9.6; aptamer (1.5625 nM-5 uM, 95 C 5 min then snap-cooled) in 1x DPBS, 0.55 mM MgCl2, 0.05% Tween-20, 1% BSA, 1 h, room temperature; SA-HRP/TMB read-out at 450 nm; details: protein: recombinant; label: 5' biotin; hairpin, 2 loops predicted by Mfold; CD B-DNA-like
Glycophorin A [3] = molecular target: T1, Glycophorin A; assay: ELONA; one-site fit, R2 0.716; text says low micromolar; ELONA: protein coated at 10 nM in carbonate/bicarbonate pH 9.6; aptamer (1.5625 nM-5 uM, 95 C 5 min then snap-cooled) in 1x DPBS, 0.55 mM MgCl2, 0.05% Tween-20, 1% BSA, 1 h, room temperature; SA-HRP/TMB read-out at 450 nm; details: protein: recombinant; label: 5' biotin; hairpin, 2 loops predicted by Mfold; CD indicates parallel G4
Glycophorin A [4] = molecular target: T1, Glycophorin A; assay: ELONA; one-site fit, R2 0.857; ELONA: protein coated at 10 nM in carbonate/bicarbonate pH 9.6; aptamer (1.5625 nM-5 uM, 95 C 5 min then snap-cooled) in 1x DPBS, 0.55 mM MgCl2, 0.05% Tween-20, 1% BSA, 1 h, room temperature; SA-HRP/TMB read-out at 450 nm; details: protein: recombinant; label: 5' biotin; hairpin, 3 loops predicted by Mfold; CD indicates parallel G4

GLUT1 (glucose transporter band 4.5) (Homo sapiens), sequence (P11166 whole entry): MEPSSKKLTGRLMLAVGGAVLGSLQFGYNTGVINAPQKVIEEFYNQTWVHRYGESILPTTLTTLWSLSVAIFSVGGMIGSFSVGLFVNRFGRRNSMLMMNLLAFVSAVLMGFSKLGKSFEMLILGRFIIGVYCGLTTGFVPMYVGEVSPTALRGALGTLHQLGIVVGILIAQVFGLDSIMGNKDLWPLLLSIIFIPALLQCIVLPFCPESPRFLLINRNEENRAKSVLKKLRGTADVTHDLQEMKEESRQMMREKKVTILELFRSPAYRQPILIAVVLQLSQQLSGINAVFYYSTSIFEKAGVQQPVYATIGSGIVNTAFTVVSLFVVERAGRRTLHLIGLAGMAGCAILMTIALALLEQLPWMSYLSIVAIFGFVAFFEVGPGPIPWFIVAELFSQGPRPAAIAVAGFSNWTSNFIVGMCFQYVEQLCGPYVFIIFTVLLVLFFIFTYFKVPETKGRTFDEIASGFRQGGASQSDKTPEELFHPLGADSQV

Molecule: ATCCAGAGTGACGCAGCATGCGGGGAGAGGAGTGTGGGATGGGTTTGTTTGTTTAGGGTGGACACGGTGGCTTAGT [N4 aptamer (76 nt)]
- Kd [1]: 37.6 nM

Molecule: ATCCAGAGTGACGCAGCACGGGTTGGGGCTGGTTGTGTGTTGTTTTTTTGGCTGTATGTGGACACGGTGGCTTAGT [N1 aptamer (76 nt)]
- Kd [1]: 59.5 nM

Molecule: CTCCTCTGACTGTAACCACGTCGCGGGTAGGGGGAGGGCCGAGGAGGCTGTAGGTGGGTGGCATAGGTAGTCCAGAAGCC [BB1 aptamer (80 nt)]
- Kd [1]: 41.6 nM

B1: N1 aptamer (76 nt) (ssDNA)
DNA: ATCCAGAGTGACGCAGCACGGGTTGGGGCTGGTTGTGTGTTGTTTTTTTGGCTGTATGTGGACACGGTGGCTTAGT
- Kd (Glycophorin A [2]): 356 ± 95.6 nM

B2: N4 aptamer (76 nt) (structured_DNA)
DNA: ATCCAGAGTGACGCAGCATGCGGGGAGAGGAGTGTGGGATGGGTTTGTTTGTTTAGGGTGGACACGGTGGCTTAGT
- Kd (Glycophorin A [3]): 354 ± 227 nM

B3: BB1 aptamer (80 nt) (structured_DNA)
DNA: CTCCTCTGACTGTAACCACGTCGCGGGTAGGGGGAGGGCCGAGGAGGCTGTAGGTGGGTGGCATAGGTAGTCCAGAAGCC
- Kd (Glycophorin A [4]): 25 ± 10.3 nM
